In experiment [1] the target is T1, full-length human Siglec15 with C-terminal flag and Myc tags on HEK293 cells (human, UniProt Q6ZMC9 20-328).
T1 construct: whole, on cells; also called Siglec15/HEK293; HEK293-Siglec 15; not shown: C-terminal flag and Myc tags from pCMV6-Entry vector
T1 sequence (looked up): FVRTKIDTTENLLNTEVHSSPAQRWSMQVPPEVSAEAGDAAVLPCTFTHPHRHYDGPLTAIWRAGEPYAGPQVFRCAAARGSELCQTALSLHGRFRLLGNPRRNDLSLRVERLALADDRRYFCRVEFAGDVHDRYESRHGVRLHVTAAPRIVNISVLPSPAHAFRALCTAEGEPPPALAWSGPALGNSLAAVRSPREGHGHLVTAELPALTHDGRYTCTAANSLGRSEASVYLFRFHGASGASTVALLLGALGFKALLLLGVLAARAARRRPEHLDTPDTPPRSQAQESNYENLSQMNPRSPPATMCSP
Nature of the experiment: FACS on Siglec15/HEK293 cells, IgG, anti-hFc Alexa fluor 647.

Another experiment concerns the target T2, rmouseSiglec15 His (mouse, UniProt A7E1W8 20-262).
T2 sequence: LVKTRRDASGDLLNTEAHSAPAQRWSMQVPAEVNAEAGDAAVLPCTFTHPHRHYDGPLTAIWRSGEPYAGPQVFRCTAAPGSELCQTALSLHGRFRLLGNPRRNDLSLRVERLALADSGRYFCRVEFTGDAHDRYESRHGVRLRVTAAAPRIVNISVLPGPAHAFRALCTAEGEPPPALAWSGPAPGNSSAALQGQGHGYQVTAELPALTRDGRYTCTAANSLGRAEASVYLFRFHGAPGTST
Nature of the experiment: ELISA; His-tagged Siglec15 coated, IgG titrated, anti-hFc HRP. The method, then:
(§1) An ELISA assay was developed to determine the EC50 of anti-Siglec15 IgG antibodies. Briefly, a 384 well plate was immobilized with human Siglec 15-HIS tagged recombinant protein at a final concentration of 2 ug/mL in 1×PBS in total volume of 25 uL per well. The plate was incubated overnight at 4° C. followed by blocking with 80 uL of superblock per well for 1 hour. Titration of purified anti-Siglec15 IgG was performed, starting at 200 nM 2-fold serial dilution, then 25 uL was added to the human Siglec15 immobilized wells and incubated for 1 hour with shaking. The Siglec15 binding was detected by adding 25 uL of anti-hFc HRP diluted at 1:5000 in 1×PBST. In between each step, the plate was washed 3 times with 1×PBST in a plate washer. The plate was then developed with 20 ul of TMB substrate for 5 mins and stopped by adding 20 ul of 2N sulfuric acid. The plate was read at OD450 nm Biotek plate reader and then plotted in Prism 8.1 software. Similar binding experiments were done for mouse Siglec15 and cyno Siglec15 to check the cross activity of the IgG antibodies to those two species.

The target in the next experiment is T3, rcynoSiglec15 His (cyno, UniProt A0A2K5UY47 20-262).
T3 construct: not shown: His tag
T3 sequence: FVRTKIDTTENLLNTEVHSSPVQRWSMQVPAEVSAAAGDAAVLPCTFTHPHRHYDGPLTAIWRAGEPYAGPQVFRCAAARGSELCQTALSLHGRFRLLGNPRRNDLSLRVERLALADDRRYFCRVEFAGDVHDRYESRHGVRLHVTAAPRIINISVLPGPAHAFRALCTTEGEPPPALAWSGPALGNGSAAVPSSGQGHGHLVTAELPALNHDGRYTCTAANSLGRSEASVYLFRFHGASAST
The experiment is described as above. The method, then: as §1

In experiment [2] the target is T4, human Siglec 15-HIS tagged recombinant protein (human, UniProt Q6ZMC9 20-263).
T4 construct: Recombinant soluble protein; also called rhSiglec15 His; human Siglec15-HIS tagged protein; not shown: HIS tag
T4 sequence (looked up): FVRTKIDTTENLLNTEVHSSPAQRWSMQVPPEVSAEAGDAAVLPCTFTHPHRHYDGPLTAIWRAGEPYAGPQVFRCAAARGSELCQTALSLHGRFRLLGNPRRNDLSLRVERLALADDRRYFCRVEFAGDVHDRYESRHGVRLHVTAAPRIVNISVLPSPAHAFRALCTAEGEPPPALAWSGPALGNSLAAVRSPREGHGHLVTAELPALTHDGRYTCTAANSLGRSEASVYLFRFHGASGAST
The experiment is described as above. The method, then: as §1

Experiment [3] concerns the target T5, human Siglec15-Fc fusion protein (human, UniProt Q6ZMC9 20-263).
T5 construct: Bought protein (Acro #SG5-H5253 is named for the selection); also called recombinant Siglec 15-Fc fusion protein (Acro #SG5-H5253); human Siglec15-Fc protein; not shown: Fc part of the bought fusion protein
T5 sequence (looked up): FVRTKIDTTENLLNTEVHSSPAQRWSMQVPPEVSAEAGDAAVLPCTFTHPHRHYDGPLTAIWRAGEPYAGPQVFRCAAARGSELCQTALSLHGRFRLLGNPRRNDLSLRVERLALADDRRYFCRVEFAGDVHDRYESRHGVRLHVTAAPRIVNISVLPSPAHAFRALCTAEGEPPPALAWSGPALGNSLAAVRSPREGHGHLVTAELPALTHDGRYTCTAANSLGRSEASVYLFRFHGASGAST
In words: ELISA; Siglec15-Fc captured by anti-hFc, scFv titrated, anti-Flag HRP. The method, then: An ELISA assay was developed to determine the EC50 of anti-Siglec15 antibodies. Briefly, a 384 well plate was immobilized with anti-human Fc antibody at final concentration of 2 ug/mL in 1×PBS in total volume of 25 uL per well. The plate was incubated overnight at 4° C. followed by blocking with 80 uL of superblock per well for 1 hour. Human Siglec 15-Fc was captured through immobilized anti-hFc antibody. Purified anti-Siglec 15 scFvs were 2-fold serial titrated from 200 nM. 25 uL was added to human Siglec15 immobilized wells and incubated for 1 hour with shaking. The Siglec15 binding was detected by adding 25 uL of anti-Flag HRP diluted at 1:5000 in 1×PBST. In between each step, the plate was washed 3 times with 1×PBST in a plate washer. The plate was then developed with 20 uL of TMB substrate for 5 mins and stopped by adding 20 uL of 2 N sulfuric acid. The plate was read at OD450 nm Biotek plate reader and then plotted in Prism 8.1 software.
On the technique in general: In an ELISA, binding on a coated surface is turned into a signal by an enzyme label.

Experiment [4] deals with T5, human Siglec15-Fc fusion protein. In words: SPR Biacore T200; Siglec15-Fc captured on Protein A chip, scFv as analyte. As for the experimental part:
Kinetic analysis of anti-Siglec15 scFvs were assessed by SPR technology with Biacore T200. The assay was run with Biacore T200 control software version 2.0. Protein A sensor chip was used to capture Fc fusion protein in the assay. For each cycle, 1 ug/mL of human Siglec15-Fc protein was captured for 60 seconds at flow rate of 10 ul/min on flow cell 2 in 1× HBSP buffer on Protein A sensor chip. 2-fold serial diluted HIS tag purified anti-Siglec15 scFv was injected onto both reference flow cell 1 and Siglec 15-Fc captured flow cell 2 for 150 seconds at flow rate of 30 ul/min followed by wash for 300 seconds. The flow cells were then regenerated with Glycine pH 2 buffer (GE) for 30 seconds at flow rate of 30 ul/mins. 8 concentration points from 300-0 nM was assayed per anti-Siglec15 scFv in a 96 well plate. The kinetics of scFvs binding to Siglec 15 protein was analyzed with Biacore T200 evaluation software version 3.0. The specific binding response unit was derived from subtraction of binding to reference flow cell 1 from Siglec15 captured flow cell 2.
(In general: SPR reads the build-up and loss of mass on a sensor chip optically.)

The target of experiment [5] is T1, full-length human Siglec15 with …. In words: FACS on Siglec15/HEK293 cells, scFv, anti-His detection. As for the experimental part:
[…] Cells were spun down at 1200 rpm for 5 minutes at 4° C. to remove primary antibodies. Cells were then washed once with 200 uL of full medium per well. Samples were detected with premixed anti-His Biotin Streptavidin Alexa fluor 647 by adding 100 uL of diluted secondary antibody and incubated at 4° C. for 30 minutes in the dark. Samples were spun down at 1200 rpm for 5 minutes at 4° C. and washed twice with 200 uL of 1×PBS per well. Samples were then reconstituted in 200 uL of 1×PBS and read on Attune NxT cytometer. Analysis was performed using Attune NxT software plotting the overlaying the histogram of anti-Siglec15 scFvs binding onto both negative and target cell lines.

Experiment [6] addresses T4, human Siglec 15-HIS tagged recombinant …. In words: SPR Biacore T200; IgG captured on Protein A chip, Siglec15-HIS as analyte. As for the experimental part:
Kinetic analysis of anti-Siglec15 IgG was assessed by SPR technology with Biacore T200. The assay was run with Biacore T200 control software version 2.0. For each cycle, 1 ug/mL of anti-Siglec15 IgG was captured for 60 seconds at flow rate of 10 ul/min on flow cell 2 in 1× HBSP buffer on Protein A sensor chip. 2-fold serial human Siglec15-HIS tagged protein was injected onto both reference flow cell 1 and anti-Siglec15 IgG captured flow cell 2 for 150 seconds at flow rate of 30 ul/mins followed by wash for 300 seconds. The flow cells were then regenerated with Glycine pH2 for 60 seconds at flow rate of 30 ul/mins. 8 concentration points from 100-0 nM were assayed per anti-Siglec15 IgG in a 96 well plate. The kinetics of Anti-Siglec15 IgG binding to Siglec 15 protein was analyzed with Biacore T200 evaluation software version 3.0. The specific binding response unit was derived from subtraction of binding to reference flow cell 1 from antibody captured flow cell 2.

A word on the EC50: it is the concentration giving half of the maximal effect. For orientation: Kd means the equilibrium constant for the complex coming apart. For orientation: koff means a measure of how fast the partners let go of each other. In general, kon refers to a measure of how fast the partners come together. The low end stands for slower complex formation, the high end for faster complex formation.

B1: 2020EP032-H11 IgG (antibody, V domains shown)
VH: EVQLVESGGGLVKPGGSLRLSCAASGFTFSSYSMNWVRQAPGKGLEWVSSISSSSSYIYYADSVKGRFTISRDNAKNSLYLQMNSLRAEDTAVYYCARDYRGYSGQNYYGMDVWGQGTTVTVSS
VL: QSALTQPPSVSAAPRQKVTISCSGSSSNIGNNDVSWYQQLPGTVPKLLIYDNNKRPSGIPDRFSGSKSGTSASLGITGLQTGDEADYYCGVWDSSLSGYVFGTGTKVTVL
notes: IgG form expressed in ExpiHEK293-F cells; detected with anti-hFc; also called 2020EP32-H11; H11 mAb
B1: the EC50 came to 0.022 nM in experiment [1], 0.0105 nM in the experiment with rmouseSiglec15 His, 0.0258 nM with rcynoSiglec15 His and 0.0228 nM in experiment [2].

B2: 2020EP032-H11 scFv (scFv, V domains shown)
VH: EVQLVESGGGLVKPGGSLRLSCAASGFTFSSYSMNWVRQAPGKGLEWVSSISSSSSYIYYADSVKGRFTISRDNAKNSLYLQMNSLRAEDTAVYYCARDYRGYSGQNYYGMDVWGQGTTVTVSS
VL: QSALTQPPSVSAAPRQKVTISCSGSSSNIGNNDVSWYQQLPGTVPKLLIYDNNKRPSGIPDRFSGSKSGTSASLGITGLQTGDEADYYCGVWDSSLSGYVFGTGTKVTVL
notes: Tested as a single-chain scFv made in E. coli with a C-terminal flag and 6x His tag
B2 returned an EC50 in experiment [3] of 0.567 nM. Moreover, in experiment [4], the Kd is 0.557 nM, the koff is 0.000316 s⁻¹ and the kon came to 567000 M⁻¹ s⁻¹. The same molecule yielded an EC50 in experiment [5] of 10.6 nM.

B3: 2020EP032-B03 IgG (antibody, V domains shown)
VH: QVQLQQWGAGLLKPSETLSLTCAVYGGSFSGYYWSWIRQPPGKGLEWIGEINHSGSTNYNPSLKSRVTISVDTSKNQFSLKLSSVTAADTAVYYCARGPLRKYYDFWSGSRNYYYYGMDVWGQGTTVTVSS
VL: QPVLTQDPAVSVALGQTVRITCQGDSLRSNYASWYQLKPGQAPVLVIYDKNNRPSGIPDRFSGSNSGNTASLTIAGAQAEDEADYYCTSRDSSGTVFGGGTKLTVL
notes: IgG form expressed in ExpiHEK293-F cells; detected with anti-hFc; also called 2020EP32-B03
Turning to B3, the EC50 is 1.92 nM in experiment [1], 0.248 nM with rmouseSiglec15 His, 1.21 nM with rcynoSiglec15 His and 0.527 nM in experiment [2].

B4: 2019EP47-A02 IgG (antibody, V domains shown)
VH: EVQLVQSGGGVVQPGRSLRLSCAASGFTFSSYAMHWVRQAPGKGLEWVAVISYDGSNKYYADSVKGRFTISRDNSKNTLYLQMNSLRAEDTAVYYCARSRYSSSLRRYYGMDVWGQGTTVTVSS
VL: AIQLTQSPSSLSASVGDRVTITCQATHDIANYLNWYQQKPGKAPKLLIYAASNLETGVPSRFSGSGSGTDFTFAISSLQPEDIAVYYCQQYDNLPLTFGGGTKVEIK
notes: IgG form expressed in ExpiHEK293-F cells; detected with anti-hFc
As to B4, the EC50 in experiment [1] was 0.35 nM; in experiment [2], 0.0289 nM. The Kd in experiment [6] came out at 2.4 nM. Further, the koff in experiment [6] is 0.000311 s⁻¹.

B5: 2019EP47-A10 IgG (antibody, V domains shown)
VH: QMQLVQSGGGVVQPGRSLRLSCAASGFTFSSYGMHWVRQAPGKGLEWVAVISYDGSNKYYADSVKDRFTISRDNSKNTLYLQMNSLRAEDTAVYYCAKDIVGDSGSYPIYYYYGMDVWGQGTTVTVSS
VL: SQSALTQPHSVSESPGKTVTISCTRSSGSIASNYVQWYQQRPGSAPSTVIYEDNQRPSGVPDRFSGSVDISSNSASLTISGLQTEDEADYYCQSYDNDNMVFGGGTKLTVL
notes: as for B4
Turning to B5, the EC50 is 0.109 nM in the experiment with rmouseSiglec15 His, 0.171 nM with rcynoSiglec15 His and 0.119 nM in experiment [2]. Besides, the Kd in experiment [6] was determined as 3.8 nM. Moreover, in experiment [6], the koff amounted to 0.000368 s⁻¹.
